B1: cdr2 168-176 RQHFVYDHV (peptide)
peptide: RQHFVYDHV
B2: cdr2 259-267 QMLQSEHPF (peptide)
peptide: QMLQSEHPF
B3: cdr2 424-432 ALFKEIFSC (peptide)
peptide: ALFKEIFSC
B4: cdr2 350-358 DTQYSALKV (peptide)
peptide: DTQYSALKV
B5: cdr2 414-422 SSPTTPPEY (peptide)
peptide: SSPTTPPEY
B6: cdr2 439-447 EIDEQRTKY (peptide)
peptide: EIDEQRTKY
B7: cdr2 163-171 ELYDLRQHF (peptide)
peptide: ELYDLRQHF
B8: cdr2 209-217 LSLERQKRV (peptide)
peptide: LSLERQKRV
B9: cdr2 355-363 ALKVKYEEL (peptide)
peptide: ALKVKYEEL
B10: cdr2 37-45 TLLDRNTEL (peptide)
peptide: TLLDRNTEL
B11: cdr2 211-219 LERQKRVTM (peptide)
peptide: LERQKRVTM
B12: cdr2 196-204 EHLKKTVTM (peptide)
peptide: EHLKKTVTM
B13: cdr2 432-440 CIKKTKQEI (peptide)
peptide: CIKKTKQEI

The target in one assay is T1, HLA-A*1501 (human).
T1 construct: possibly meant as HLA-B*1501
The assay is described as follows: iTopia net score.
Take B1: the iScore was 0.088.

Molecule B2 returned an iScore of 0.257.

On to B3, for which the iScore is 0.053.

A further assay has as its target HLA-A*0101 (human). The assay is described as follows: iTopia off-rate.
Regarding B4, the t1/2 is 0.4.

Consider B5, for which the t1/2 turned out to be 0.96.

On to B6, for which the t1/2 was 1.26.

A further assay addresses T2, HLA-A*0201 (human).
T2 construct: also called HLA-A2.1; HLA A2.1
Kind of assay: iTopia net score.
B7 registered an iScore of 0.132.

In turn, B8 showed an iScore of 0.139.

The molecule B9 registered an iScore of 0.107.

In the case of B1, the iScore amounted to 0.304.

Regarding B3, the iScore came out at 0.546.

For another assay, the target named is HLA-A*2402 (human). The assay is described as follows: iTopia net score.
The molecule B7 had an iScore of 0.095.

On to B9, for which the iScore was found to be 0.076.

Molecule B2 returned an iScore of 0.082.

With B10, the iScore worked out at 0.08.

Another assay has as its target HLA-B*0801 (human). The assay is described as follows: iTopia affinity.
Take B7: the ED50 is 340 µM.

For B8, the ED50 is 280 µM.

B9 registered an ED50 of 84 µM.

In turn, B11 yielded an ED50 of 140 µM.

In turn, B12 came in with an ED50 of 130 µM.

With B13, the ED50 came to 240 µM.

For B10, the ED50 amounted to 360 µM.

A further assay addresses T2, HLA-A*0201. Kind of assay: iTopia off-rate.
B7: the t1/2 is 0.55.

Regarding B8, the t1/2 amounted to 1.25.

Take B9: the t1/2 was determined as 0.8.

Regarding B1, the t1/2 came out at 3.7.

Consider B3, for which the t1/2 was determined as 18.7.

For a further assay, the target named is HLA-A*0101 (human). Kind of assay: iTopia net score.
As to B4, the iScore is 0.04.

B5 displayed an iScore of 0.05.

As to B6, the iScore stood at 0.107.

Another assay concerns the target T2, HLA-A*0201. The assay is described as follows: iTopia binding.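 Note: each peptide tested for binding to HLA-A2 molecules immobilized on plates, using a commercial screening kit run per its supplied protocol and reagents.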
In the case of B7, the “binding vs positive control” value is over 30%.

With B8, the “binding vs positive control” value is over 30%.

Turning to B9, the “binding vs positive control” value was over 30%.

Turning to B1, the “binding vs positive control” value was over 30%.

On to B3, for which the “binding vs positive control” value was over 30%.

In the next assay the target is T2, HLA-A*0201. The assay is described as follows: iTopia affinity.
For B7, the ED50 came to 2.7 µM.

Molecule B8 gave an ED50 of 8.4 µM.

In turn, B9 came in with an ED50 of 7 µM.

As to B1, the ED50 was found to be 6 µM.

As to B3, the ED50 turned out to be 30 µM.

A further assay has as its target HLA-A*0101 (human). The assay is described as follows: iTopia affinity.
B4: the ED50 was found to be 49 µM.

In the case of B5, the ED50 amounted to 130 µM.

As for B6, the ED50 stood at 31 µM.

The target of another assay is HLA-A*2402 (human). Kind of assay: iTopia off-rate.
In the case of B7, the t1/2 was 0.23.

In the case of B9, the t1/2 turned out to be 0.38.

The molecule B2 yielded a t1/2 of 0.25.

In turn, B10 showed a t1/2 of 1.39.

A further assay deals with HLA-A*2402 (human). Kind of assay: iTopia affinity.
For the molecule B7, the ED50 amounted to 3.3 µM.

B9 yielded an ED50 of 10 µM.

For the molecule B2, the ED50 was 53 µM.

Regarding B10, the ED50 stood at 56 µM.

For a further assay, the target named is HLA-B*0801 (human). Kind of assay: iTopia net score.
For B7, the iScore was 0.037.

On to B8, for which the iScore came out at 0.046.

Take B9: the iScore is 0.099.

For B11, the iScore came out at 0.037.

In turn, B12 yielded an iScore of 0.065.

For B13, the iScore amounted to 0.054.

Consider B10, for which the iScore stood at 0.045.

A further assay deals with T1, HLA-A*1501. Kind of assay: iTopia affinity.
The molecule B1 yielded an ED50 of 39 µM.

With B2, the ED50 came to 8.3 µM.

Molecule B3 showed an ED50 of 8.3 µM.

(Values after US20090208538A1 (ROCKEFELLER UNIVERSITY, published 2009).)
